Results on 14 molecules are retold here after patent publication US20200123260A1 (Pfizer, published 2020).

Substitutions are numbered along the chain they refer to.

Experiment [1] concerns the target T1, mouse TrkB (nm_001025074) on HEK293 cells (mouse, UniProt P15209 32-821).
T1 construct: whole, on cells; also called rmuTrkB-CRE
Put plainly: cell-based ELISA on transfected 293 cells.

The target in experiment [2] is T2, TrkB, Cat (Felis domesticus) on 293 cells (cat (Felis domesticus)).
T2 construct: Whole entry with signal peptide; also called cat TrkB
T2 sequence (chain, as listed by the source limits assumed): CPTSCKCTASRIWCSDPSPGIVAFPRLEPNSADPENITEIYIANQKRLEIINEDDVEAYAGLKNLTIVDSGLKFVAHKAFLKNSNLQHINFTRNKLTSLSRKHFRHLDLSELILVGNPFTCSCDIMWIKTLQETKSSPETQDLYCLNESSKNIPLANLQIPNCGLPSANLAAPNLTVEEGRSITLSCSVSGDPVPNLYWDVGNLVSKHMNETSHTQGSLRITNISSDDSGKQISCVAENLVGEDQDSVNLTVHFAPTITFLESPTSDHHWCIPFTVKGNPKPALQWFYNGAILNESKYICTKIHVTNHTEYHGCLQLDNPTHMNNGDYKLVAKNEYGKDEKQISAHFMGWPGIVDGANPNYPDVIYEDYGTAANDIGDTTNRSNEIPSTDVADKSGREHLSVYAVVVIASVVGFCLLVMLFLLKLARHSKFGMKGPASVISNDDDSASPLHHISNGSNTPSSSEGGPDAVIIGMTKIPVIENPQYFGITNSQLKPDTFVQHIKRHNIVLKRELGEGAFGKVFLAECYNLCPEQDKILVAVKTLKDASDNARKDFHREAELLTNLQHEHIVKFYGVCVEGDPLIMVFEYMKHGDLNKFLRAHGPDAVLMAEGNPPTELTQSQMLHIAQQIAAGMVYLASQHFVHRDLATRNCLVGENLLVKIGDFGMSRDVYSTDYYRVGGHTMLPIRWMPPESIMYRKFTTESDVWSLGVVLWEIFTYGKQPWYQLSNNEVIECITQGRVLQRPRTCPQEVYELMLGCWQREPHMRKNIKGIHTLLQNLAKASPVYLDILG
Put plainly: cell-based ELISA on transfected 293 cells. A general note: An ELISA detects its analyte on a solid surface through an enzyme-linked reagent.

The target in experiment [3] is T3, rhTrkB-ECD (R&D #397-TR/CF) (human, UniProt Q16620 32-430).
T3 construct: extracellular domain; Bought protein; also called human TrkB-extracellular domain protein; human TrkB ectodomain protein
T3 sequence (Q16620 32-430): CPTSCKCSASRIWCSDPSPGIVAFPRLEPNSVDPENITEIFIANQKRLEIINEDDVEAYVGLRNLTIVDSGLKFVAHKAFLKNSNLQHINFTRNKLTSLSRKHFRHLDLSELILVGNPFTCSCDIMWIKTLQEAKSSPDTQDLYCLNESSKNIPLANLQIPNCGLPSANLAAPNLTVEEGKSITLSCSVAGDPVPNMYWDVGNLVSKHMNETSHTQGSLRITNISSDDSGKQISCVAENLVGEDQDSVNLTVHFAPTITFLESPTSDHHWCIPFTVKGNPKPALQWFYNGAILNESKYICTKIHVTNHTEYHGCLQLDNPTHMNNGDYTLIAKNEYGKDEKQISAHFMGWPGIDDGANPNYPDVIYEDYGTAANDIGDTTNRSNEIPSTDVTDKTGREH
Put plainly: SPR (Biacore), TrkB ectodomain immobilised on CM5, antibody injected. On the technique in general: In SPR one partner is held on a chip, and binding of the other changes the refractive index at the surface.

Experiment [4] concerns the target T4, Mouse TrkB ectodomain protein (R&D #1494-TB/CF) (mouse, UniProt P15209 32-429).
T4 construct: extracellular domain; Bought protein; also called mouse TrkB-extracellular domain protein
The experiment is described as above.

Experiment [5] concerns the target Human TrkA, NP_002520, cell-surface expressed on transfected 293 cells (human, UniProt P04629 33-796). In words: cell-based ELISA on transfected 293 cells, HRP-conjugated secondary antibody, TMB, OD450.
Experiment [6] deals with T5, Chimeric TrkB (d5TrkA) (human, UniProt Q16620 32-822).
T5 construct: TrkB residues 284-377 replaced by TrkA residues 280-377
Described as above.

The target of experiment [7] is T6, Chimeric TrkA (d4TrkB) (human).
T6 construct: TrkA residues 187-281 replaced by TrkB residues 190-282
T6 sequence (chain, as listed by the source mutant limits assumed): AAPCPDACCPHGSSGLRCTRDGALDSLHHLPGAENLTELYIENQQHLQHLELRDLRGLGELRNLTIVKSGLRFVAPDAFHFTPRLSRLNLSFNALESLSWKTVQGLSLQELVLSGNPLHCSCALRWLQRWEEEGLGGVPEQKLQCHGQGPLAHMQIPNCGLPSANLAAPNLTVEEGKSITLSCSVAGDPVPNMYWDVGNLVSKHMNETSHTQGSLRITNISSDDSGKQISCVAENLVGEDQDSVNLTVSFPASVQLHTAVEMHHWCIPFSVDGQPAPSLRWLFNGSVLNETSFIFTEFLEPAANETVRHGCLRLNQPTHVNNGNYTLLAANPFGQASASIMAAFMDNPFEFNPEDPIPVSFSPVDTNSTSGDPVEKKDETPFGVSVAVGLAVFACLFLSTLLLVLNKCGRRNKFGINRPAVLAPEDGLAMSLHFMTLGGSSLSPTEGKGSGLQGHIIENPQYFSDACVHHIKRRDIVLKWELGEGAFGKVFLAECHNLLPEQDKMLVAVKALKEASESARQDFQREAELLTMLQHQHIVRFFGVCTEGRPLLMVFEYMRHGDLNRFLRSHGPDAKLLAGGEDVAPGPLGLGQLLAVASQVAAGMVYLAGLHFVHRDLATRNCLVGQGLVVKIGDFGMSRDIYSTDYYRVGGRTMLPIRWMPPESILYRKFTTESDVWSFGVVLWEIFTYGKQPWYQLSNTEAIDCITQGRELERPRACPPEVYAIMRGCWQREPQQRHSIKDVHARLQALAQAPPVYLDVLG
Described as above.

The target of experiment [8] is T7, recombinant human TrkA-Fc (rhTrkA-ECD, R&D system, 175-TK) (human, UniProt P04629 33-423).
T7 construct: extracellular domain; Bought protein; not shown: Fc part, not described
T7 sequence (P04629 33-423): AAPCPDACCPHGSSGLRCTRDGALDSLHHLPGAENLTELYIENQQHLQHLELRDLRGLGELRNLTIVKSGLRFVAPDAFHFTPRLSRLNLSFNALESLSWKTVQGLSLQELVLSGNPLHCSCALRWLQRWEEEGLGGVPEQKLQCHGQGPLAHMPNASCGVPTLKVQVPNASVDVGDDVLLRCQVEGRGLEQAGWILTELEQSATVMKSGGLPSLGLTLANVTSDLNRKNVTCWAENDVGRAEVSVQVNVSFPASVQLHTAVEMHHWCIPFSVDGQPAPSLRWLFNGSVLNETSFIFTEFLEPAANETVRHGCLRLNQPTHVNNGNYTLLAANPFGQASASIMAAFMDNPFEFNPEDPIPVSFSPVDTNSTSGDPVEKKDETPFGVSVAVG
Put plainly: direct binding ELISA: plate coated with rhTrkA-ECD (Fc chimera) at 5 ug/ml, biotinylated antibody, streptavidin-HRP.

In experiment [9] the target is T8, recombinant human TrkC-Fc (rhTrkC-ECD, R&D system, 373-TC/TF) (human, UniProt Q16288 32-429).
T8 construct: extracellular domain; Bought protein; not shown: Fc part, not described
In words: direct binding ELISA: plate coated with rhTrkC-ECD (Fc chimera) at 5 ug/ml, biotinylated antibody, streptavidin-HRP.

Experiment [10] addresses T3, rhTrkB-ECD (R&D #397-TR/CF). Put plainly: competition ELISA on coated rhTrkB-ECD; competitor biotinylated chimeric TOA-1 at 25 ng/ml.
The target is the same in experiment [11]. In words: competition ELISA: plate coated with rhTrkB-ECD; biotinylated chimeric TOA-1 at 25 ng/ml mixed with the unlabeled antibody; streptavidin-HRP.
In experiment [12] the target is human TrkB (open reading frame from nm_006180) on HEK293 cells (human, UniProt Q16620 32-822). Put plainly: cell-based or functional assay.
human TrkB (open reading frame from nm_006180) on HEK293 cells, sequence (Q16620 32-822): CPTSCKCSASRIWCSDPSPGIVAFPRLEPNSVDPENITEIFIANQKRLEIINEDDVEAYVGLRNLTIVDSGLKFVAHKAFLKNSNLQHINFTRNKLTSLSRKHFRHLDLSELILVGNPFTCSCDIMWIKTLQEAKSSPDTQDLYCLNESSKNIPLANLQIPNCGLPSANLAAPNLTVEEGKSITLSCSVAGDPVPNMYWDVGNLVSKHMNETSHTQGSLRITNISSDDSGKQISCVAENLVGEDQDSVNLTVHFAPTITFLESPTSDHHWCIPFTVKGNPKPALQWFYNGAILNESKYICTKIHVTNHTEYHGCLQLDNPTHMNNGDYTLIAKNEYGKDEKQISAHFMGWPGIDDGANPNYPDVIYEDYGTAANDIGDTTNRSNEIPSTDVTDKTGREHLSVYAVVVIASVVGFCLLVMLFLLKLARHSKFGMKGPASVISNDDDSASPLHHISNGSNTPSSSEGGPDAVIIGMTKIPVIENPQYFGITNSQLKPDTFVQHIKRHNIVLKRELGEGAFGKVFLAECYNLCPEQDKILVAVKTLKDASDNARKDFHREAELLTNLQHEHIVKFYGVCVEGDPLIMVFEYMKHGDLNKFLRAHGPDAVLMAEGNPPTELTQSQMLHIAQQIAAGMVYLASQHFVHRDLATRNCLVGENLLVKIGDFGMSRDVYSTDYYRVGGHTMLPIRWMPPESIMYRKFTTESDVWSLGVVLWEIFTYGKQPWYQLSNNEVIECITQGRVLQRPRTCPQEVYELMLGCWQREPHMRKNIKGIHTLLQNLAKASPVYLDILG
Experiment [13] deals with hTrkB-a isoform fused to a small peptide epitope, in U2OS cells (Discoverx Pathhunter) (human, UniProt Q16620 32-822). Put plainly: cell-based or functional assay.
hTrkB-a isoform fused to a small peptide epitope, in U2OS cells (Discoverx Pathhunter), sequence (Q16620 32-430): as the sequence (Q16620 32-430) above
The target of experiment [14] is hTrkC in the SHC1 recruitment assay (U2OS, Discoverx Pathhunter) (human, UniProt Q16288 32-839). Put plainly: cell-based or functional assay.

T4 sequence (P15209 32-429): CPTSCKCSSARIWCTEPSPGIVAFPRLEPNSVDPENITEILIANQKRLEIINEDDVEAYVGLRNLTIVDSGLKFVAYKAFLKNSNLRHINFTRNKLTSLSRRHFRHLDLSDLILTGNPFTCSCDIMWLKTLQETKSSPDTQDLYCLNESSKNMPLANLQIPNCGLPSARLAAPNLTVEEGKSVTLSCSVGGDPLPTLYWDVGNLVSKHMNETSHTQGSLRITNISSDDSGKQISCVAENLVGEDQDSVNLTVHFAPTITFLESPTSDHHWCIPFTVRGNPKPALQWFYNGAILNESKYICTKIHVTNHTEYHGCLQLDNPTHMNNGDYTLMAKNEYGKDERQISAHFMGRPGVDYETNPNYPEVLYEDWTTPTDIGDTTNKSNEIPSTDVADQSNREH
Human TrkA, NP_002520, cell-surface expressed on transfected 293 cells, sequence (P04629 33-796 limits assumed): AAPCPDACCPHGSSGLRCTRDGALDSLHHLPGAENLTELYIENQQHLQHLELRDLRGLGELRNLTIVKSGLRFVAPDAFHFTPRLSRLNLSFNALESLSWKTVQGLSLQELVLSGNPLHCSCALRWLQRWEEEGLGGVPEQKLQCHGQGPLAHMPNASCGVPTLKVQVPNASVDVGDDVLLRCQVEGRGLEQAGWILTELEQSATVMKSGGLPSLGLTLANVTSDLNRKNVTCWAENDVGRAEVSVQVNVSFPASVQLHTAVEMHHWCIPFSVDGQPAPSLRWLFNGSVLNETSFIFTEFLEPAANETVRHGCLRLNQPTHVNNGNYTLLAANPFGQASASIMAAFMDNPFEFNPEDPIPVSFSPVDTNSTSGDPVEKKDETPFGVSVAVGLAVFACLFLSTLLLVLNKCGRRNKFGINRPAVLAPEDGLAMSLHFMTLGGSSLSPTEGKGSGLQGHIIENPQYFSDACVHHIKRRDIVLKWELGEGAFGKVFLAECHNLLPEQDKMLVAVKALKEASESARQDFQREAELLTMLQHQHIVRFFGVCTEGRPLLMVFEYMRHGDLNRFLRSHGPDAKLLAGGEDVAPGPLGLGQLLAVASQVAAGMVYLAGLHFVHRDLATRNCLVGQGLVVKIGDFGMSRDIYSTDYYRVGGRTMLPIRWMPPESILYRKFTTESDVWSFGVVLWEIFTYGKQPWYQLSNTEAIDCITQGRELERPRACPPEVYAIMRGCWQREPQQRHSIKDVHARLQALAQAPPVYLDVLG

B1: mouse TOA-1 antibody (antibody, mouse IgG1, V domains shown)
VH: EVQLQQSGPELVKPGASMKISCKTSGYSFTAYFMNWVKQSHGKSLEWIGRINPNNGDTFYTQKFKGKATLTVDKSSNTAHMELLSLTSEDSAIYYCGRRDYFGAMDYWGQGTSVTVSS
VL: AIVLIQSPATLSVTPGDSVSLSCRASQTISNNLHWYQQKSHESPRLLIKSASLAISGIPSRFSGSGSGTDFTLSISSVETEDFGMYFCQQSNSWPNTFGGGTKLEIK
notes: Hybridoma antibody, cloned with mouse IgG1 and mouse Kappa primers; also called muTOA-1; mTOA-1
Regarding B1, the EC50 (as a rule, the concentration that produces a half-maximal response) in [1] was 0.0004 µM; in [2], 0.00023 µM. Moreover, the Kd (as a rule, the equilibrium constant for the complex coming apart) in [3] stood at 0.0147 µM; in [4] it was 0.0163 µM. For the same molecule, the binding result in experiment [5] is listed as “no binding (tested: 10.00 ug/ml)”; in experiment [6], “no binding (tested: 1.0000 ug/ml)”; in experiment [7], “no binding (tested: 10.00 ug/ml)”; in experiment [8], “no binding (tested: about 6.7 nM)”; in experiment [9] it was “no binding (tested: about 6.7 nM)”.

B2: chimeric TOA-1 antibody (antibody, V domains shown)
VH: B1 VH
VL: B1 VL
notes: also called chiTOA-1; VH mouse / VL mouse
As for B2, the values for the Kd in experiment [3] and in experiment [4] were 0.0121 µM and 0.017 µM, respectively. Moreover, the IC50 (in general, the concentration that gives 50% inhibition) in experiment [10] was determined as 0.0036 µM.

B3: TOA-1 variant VH human v1.1 / VL human v1.0 (antibody, V domains shown)
VH: EVQLVESGGGLVQPGGSLRLSCATSGYSFTAYFMNWVRQAPGKGLEWVARINPNNGDTFYTQKFKGRFTISVDNAKNSAYLQMNSLRAEDTAVYYCARRDYFGAMDYWGQGTLVTVSS
VL: DIQMTQSPSSLSASVGDRVTITCRASQTISNNLHWYQQKPGKAPKLLIYSASLAISGVPSRFSGSGSGTDFTLTISSLQPEDFATYYCQQSNSWPNTFGGGTKVEIK
notes: Human IgG; constant regions not restated; also called hu v1.1 / hu v1.0
In the case of B3, in [10], the IC50 is 0.0136 µM.

B4: TOA-1 variant VH mouse / VL human v1.0 (antibody, V domains shown)
VH: B1 VH
VL: B3 VL
notes: Human IgG from COS-1 conditioned medium; constant regions not restated; also called mu / hu v1.0
For the molecule B4, the IC50 in [10] is 0.0163 µM.

B5: TOA-1 variant VH human v2.0 / VL human v1.0 (antibody, V domains shown)
VH: EVQLVQSGAEVKKPGATVKISCKVSGYSFTAYFMNWVQQAPGKGLEWMGRINPNNGDTFYTQKFKGRVTITADTSTDTAYMELSSLRSEDTAVYYCATRDYFGAMDYWGQGTLVTVSS
VL: B3 VL
notes: Human IgG; constant regions not restated; also called hu v2.0 / hu v1.0
For B5, the half-inhibitory concentration (IC50) in [10] was roughly 0.126 µM.

B6: huTOA-1 v1.0/2.0 (antibody, V domains shown)
VH: B3 VH with T24A, V72R, A79L
VL: EIVMTQSPATLSVSPGERATLSCRASQTISNNLHWYQQKPGQAPRLLIYSASLAISGIPARFSGSGSGTEFTLTISSLQSEDFAVYYCQQSNSWPNTFGGGTKVEIK
notes: Human IgG; constant regions not restated; also called VH human v1.0 / VL human v2.0
Consider B6, for which the equilibrium dissociation constant (Kd) in experiment [3] was found to be 0.0165 µM; in experiment [4], 0.0209 µM. The molecule also registered an IC50 in experiment [10] of 0.0059 µM.

B7: TOA-1 variant VH mouse / VL human v1.1 (antibody, V domains shown)
VH: B1 VH
VL: B3 VL with K42E, A43S, Y49K
notes: Human IgG from COS-1 conditioned medium; constant regions not restated; also called mu / hu v1.1
Molecule B7 came in with an IC50 in [10] of 0.0136 µM.

B8: huTOA-1 VH v1.0 / VL v1.2 (antibody, V domains shown)
VH: B3 VH with T24A, V72R, A79L
VL: B3 VL with K42E
notes: Human IgG; constant regions not restated; also called hu v1.0 / hu v1.2
Take B8: the “IC50 (read off the curve)” value in experiment [11] was roughly 0.009 µM.

B9: TOA-1 variant VH human v1.1 / VL human v2.0 (antibody, V domains shown)
VH: B3 VH
VL: B6 VL
notes: Human IgG; constant regions not restated; also called hu v1.1 / hu v2.0
Turning to B9, the IC50 in experiment [10] is 0.0107 µM.

B10: TOA-1 variant VH human v2.0 / VL human v1.1 (antibody, V domains shown)
VH: B5 VH
VL: B3 VL with K42E, A43S, Y49K
notes: Human IgG; constant regions not restated; also called hu v2.0 / hu v1.1
B10 showed an IC50 in experiment [10] of roughly 0.0876 µM.

B11: huTOA-1 VH v1.0 / VL v1.3 (antibody, V domains shown)
VH: B3 VH with T24A, V72R, A79L
VL: B3 VL with A43S
notes: Human IgG; constant regions not restated; also called hu v1.0 / hu v1.3
With B11, the “IC50 (read off the curve)” value in [11] is roughly 0.009 µM.

B12: TOA-1 variant VH human v1.1 / VL human v1.1 (antibody, V domains shown)
VH: B3 VH
VL: B3 VL with K42E, A43S, Y49K
notes: Human IgG; constant regions not restated; also called hu v1.1 / hu v1.1
For the molecule B12, in [10], the IC50 came out at 0.0101 µM.

B13: TOA-1 variant VH human v2.0 / VL human v2.0 (antibody, V domains shown)
VH: B5 VH
VL: B6 VL
notes: Human IgG; constant regions not restated; also called hu v2.0 / hu v2.0
In experiment [10], B13 gave an IC50 of roughly 0.0378 µM.

B14: BDNF (R&D systems, cat #248-BD) (ligand, human, UniProt P23560 129-247, looked up)
chain: HSDPARRGELSVCDSISEWVTAADKKTAVDMSGGTVTVLEKVPVSKGQLKQYFYETKCNPMGYTKEGCRGIDKRHWNSQCRTTQSYVRALTMDSKKRIGWRFIRIDTSCVCTLTIKRGR
Regarding B14, the “Cre-luciferase reporter, EC50 (FIG. 38)” value in experiment [12] was 0.0052 µM. Besides, the “EC50, SHC1 recruitment assay” value in experiment [13] was found to be 0.00102 µM; in experiment [14], 0.00545 µM.
